# Measured values taken from patent US20090280138A1 (OXFORD BIOMEDICA UK, published 2009).
# B1: 5T4 9-mer peptide 155 (LKETEVVQG) (peptide)
# peptide: LKETEVVQG
# B2: 5T4 9-mer peptide 143 (PHIRVFLDN) (peptide)
# peptide: PHIRVFLDN
# B3: 5T4 9-mer peptide 146 (LDNNPWVCD) (peptide)
# peptide: LDNNPWVCD
# B4: 5T4 9-mer peptide 150 (DCHMADMVT) (peptide)
# peptide: DCHMADMVT
# B5: 5T4 9-mer peptide 140 (AELQGLPHI) (peptide)
# peptide: AELQGLPHI
# B6: 5T4 9-mer peptide 122 (NNSLVSLTY) (peptide)
# peptide: NNSLVSLTY
# B7: 5T4 9-mer peptide 138 (NGTLAELQG) (peptide)
# peptide: NGTLAELQG
# B8: 5T4 9-mer peptide 148 (PWVCDCHMA) (peptide)
# peptide: PWVCDCHMA
# B9: 5T4 9-mer peptide 144 (IRVFLDNNP) (peptide)
# peptide: IRVFLDNNP
# B10: 5T4 9-mer peptide 130 (HLESLHLED) (peptide)
# peptide: HLESLHLED
# B11: 5T4 9-mer peptide 125 (LTYVSFRNL) (peptide)
# peptide: LTYVSFRNL
# B12: 5T4 9-mer peptide 152 (ADMVTWLKE) (peptide)
# peptide: ADMVTWLKE
# B13: 5T4 9-mer peptide 147 (NNPWVCDCH) (peptide)
# peptide: NNPWVCDCH
# B14: 5T4 9-mer peptide 127 (SFRNLTHLE) (peptide)
# peptide: SFRNLTHLE
# B15: 5T4 9-mer peptide 134 (DNALKVLHN) (peptide)
# peptide: DNALKVLHN
# B16: 5T4 9-mer peptide 131 (ESLHLEDNA) (peptide)
# peptide: ESLHLEDNA
# B17: 5T4 9-mer peptide 132 (LHLEDNALK) (peptide)
# peptide: LHLEDNALK
# B18: 5T4 9 mer peptide 16 SSSPTSSAS (peptide)
# peptide: SSSPTSSAS
# notes: also called Peptide No 16
# B19: 5T4 9 mer peptide 17 SPTSSASSF (peptide)
# peptide: SPTSSASSF
# notes: also called Peptide No 17
# B20: 5T4 9 mer peptide 22 SSAPFLASA (peptide)
# peptide: SSAPFLASA
# notes: also called Peptide No 22
# B21: 5T4 9 mer peptide 15 VSSSSPTSS (peptide)
# peptide: VSSSSPTSS
# notes: also called Peptide No 15
# B22: 5T4 9 mer peptide 120 LDLSNNSLV (peptide)
# peptide: LDLSNNSLV
# notes: also called Peptide No 120
# B23: 5T4 9 mer peptide 114 RDVLAQLPS (peptide)
# peptide: RDVLAQLPS
# Target: T1, MHC class I molecule B*0702 (biotin (bound to streptavidin-coated plate))
# T1 construct: iTopia monomer stripped of placeholder peptide and b2M, then reconstituted with test peptide and fresh b2M; also called B7; HLA-B7
# Assay: iTopia peptide binding assay
# Outline: (§1)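 Plates coated with MHC class I molecules used to test 9-mer peptides for binding under standardized optimal conditions via the iTopia Epitope Discovery System. Read by ELISA in duplicate with allele-specific positive controls; binders taken on to affinity and off-rate testing.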
row,Binder,"binding, % of positive control peptide"
1,B1,3 % of positive control
2,B2,10 % of positive control
3,B3,3 % of positive control
4,B4,5 % of positive control
5,B5,0 % of positive control
6,B6,0 % of positive control
7,B7,0 % of positive control
8,B8,0 % of positive control
9,B9,5 % of positive control
10,B10,2 % of positive control
11,B11,58 % of positive control
12,B12,8 % of positive control
13,B13,4 % of positive control
14,B14,0 % of positive control
15,B15,0 % of positive control
16,B16,0 % of positive control
17,B17,0 % of positive control

# Target: T2, MHC class I allele A*0301 (bound via biotin to streptavidin-coated plate)
# T2 construct: iTopia MHC class I monomer on the plate; placeholder peptide and b2M removed, then reconstituted with test peptide and fresh b2M; also called A3; HLA A3
# Assay: iTopia peptide binding assay
# Outline: as §1
row,Binder,% of positive control peptide binding [%]
1,B18,2
2,B19,0
3,B20,1
4,B21,2
5,B22,3
6,B23,3

# Target: T3, MHC class I allele A*0201 (bound via biotin to streptavidin-coated plate)
# T3 construct: iTopia MHC class I monomer on the plate; placeholder peptide and b2M removed, then reconstituted with test peptide and fresh b2M; also called A2; HLA A2
# Assay: iTopia peptide binding assay
# Outline: as §1
row,Binder,% of positive control peptide binding [%]
1,B18,7
2,B19,4
3,B20,85
4,B21,9
5,B22,42
6,B23,15

# Target: T4, MHC class I molecule A*0101 (biotin (bound to streptavidin-coated plate))
# T4 construct: iTopia monomer stripped of placeholder peptide and b2M, then reconstituted with test peptide and fresh b2M; also called A1; HLA-A1
# Assay: iTopia peptide binding assay
# Outline: as §1
row,Binder,"binding, % of positive control peptide"
1,B1,0 % of positive control
2,B2,0 % of positive control
3,B3,0 % of positive control
4,B4,0 % of positive control
5,B5,0 % of positive control
6,B6,8 % of positive control
7,B7,3 % of positive control
8,B8,0 % of positive control
9,B9,0 % of positive control
10,B10,4 % of positive control
11,B11,28 % of positive control
12,B12,0 % of positive control
13,B13,0 % of positive control
14,B14,1 % of positive control
15,B15,1 % of positive control
16,B16,2 % of positive control
17,B17,4 % of positive control

# Target: T5, MHC class I allele B*0702 (bound via biotin to streptavidin-coated plate)
# T5 construct: iTopia MHC class I monomer on the plate; placeholder peptide and b2M removed, then reconstituted with test peptide and fresh b2M; also called B7; HLA B7
# Assay: iTopia peptide binding assay
# Outline: as §1
row,Binder,% of positive control peptide binding [%]
1,B18,8
2,B19,62
3,B20,7
4,B21,2
5,B22,3
6,B23,4

# Target: T6, MHC class I molecule A*0201 (biotin (bound to streptavidin-coated plate))
# T6 construct: iTopia monomer stripped of placeholder peptide and b2M, then reconstituted with test peptide and fresh b2M; also called A2; HLA-A2
# Assay: iTopia peptide binding assay
# Outline: as §1
row,Binder,"binding, % of positive control peptide"
1,B1,3 % of positive control
2,B2,2 % of positive control
3,B3,0 % of positive control
4,B4,7 % of positive control
5,B5,9 % of positive control
6,B6,12 % of positive control
7,B7,9 % of positive control
8,B8,0 % of positive control
9,B9,4 % of positive control
10,B10,3 % of positive control
11,B11,25 % of positive control
12,B12,6 % of positive control
13,B13,0 % of positive control
14,B14,1 % of positive control
15,B15,5 % of positive control
16,B16,8 % of positive control
17,B17,4 % of positive control

# Target: T7, MHC class I molecule A*0301 (biotin (bound to streptavidin-coated plate))
# T7 construct: iTopia monomer stripped of placeholder peptide and b2M, then reconstituted with test peptide and fresh b2M; also called A3; HLA-A3
# Assay: iTopia peptide binding assay
# Outline: as §1
row,Binder,"binding, % of positive control peptide"
1,B1,4 % of positive control
2,B2,3 % of positive control
3,B3,2 % of positive control
4,B4,3 % of positive control
5,B5,1 % of positive control
6,B6,4 % of positive control
7,B7,3 % of positive control
8,B8,0 % of positive control
9,B9,3 % of positive control
10,B10,2 % of positive control
11,B11,20 % of positive control
12,B12,4 % of positive control
13,B13,16 % of positive control
14,B14,1 % of positive control
15,B15,0 % of positive control
16,B16,0 % of positive control
17,B17,5 % of positive control

# Target: T8, MHC class I allele A*0101 (bound via biotin to streptavidin-coated plate)
# T8 construct: iTopia MHC class I monomer on the plate; placeholder peptide and b2M removed, then reconstituted with test peptide and fresh b2M; also called A1; HLA A1
# Assay: iTopia peptide binding assay
# Outline: as §1
row,Binder,% of positive control peptide binding [%]
1,B18,4
2,B19,2
3,B20,6
4,B21,3
5,B22,7
6,B23,1
